Common to all, as to experiment: ELISA: 500 ng peptide coated per well, 29E4 at 40 ng/mL, HRP goat anti-rabbit Ig 1:16,000, ABS 450 nm, duplicates [CONT. 2]
For test [1], the target named is T1, P2 (alanine substituted, FIG. 3 panel E).
T1 construct: not the overlapping peptide P2 of panel A; also called Q212 to alanine
From the text: (§1) HRP Goat anti-rabbit Ig was applied at 1:16,000 dilution in all reactions.
(§2) Peptides were synthesized to achieve ≥70% HPLC purity by a commercial vendor (GenScript Biotech, Piscataway, NJ). Peptides were reconstituted in either water, or with addition of acetonitrile, methanol, 10% acetic acid, or DMSO, depending on the overall charge of each peptide. Key residues required for mAb binding were probed by ELISA using overlapping peptides, truncated peptides and alanine substituted peptides. Reactions were performed in duplicate using NUNC 96-well flatbottom MaxiSorp plates (Thermo Scientific). After coating each well with 500 ng of peptide in 100 μL coating buffer (50 mM NaHCO₃, pH 9.6), the plates were sealed and incubated at 4° C. overnight. […] Plates were then washed once with wash buffer, incubated with 100 μL mAb 29E4 (serially diluted from 1 mg/mL) for 1 hour at 37° C. Plates were further washed four times with wash buffer, and then incubated at 37° C. with 100 μL of a horse radish peroxidase (HRP)-conjugated secondary antibody against the primary antibody, diluted 1:16,000 according to manufacturer's protocols (KPL, Inc., Gaithersburg, MD). After washing four times with wash buffer, 100 μL of K-Blue Aqueous TMB substrate (Neogen, Lexington, KY) was added to the plates and incubated uncovered for 30 minutes at room temperature. To stop the reaction, 100 μL of 2 N Sulphuric acid was added to each well and absorbance were measured immediately at 450 nm. All dilutions of reagents were performed in ELISA diluent (20% NGS in 1×PBS with 0.1% Triton-X 100).

Test [2] addresses T2, P3 (alanine substituted, FIG. 3 panel E).
T2 construct: not the overlapping peptide P3 of panel A; also called R213 to alanine
Description: as §1, §2

In test [3] the target is T3, P4 (alanine substituted, FIG. 3 panel E).
T3 construct: not the overlapping peptide P4 of panel A; also called Q214 to alanine
Description: as §1, §2

For test [4], the target named is T4, P5 (alanine substituted, FIG. 3 panel E).
T4 construct: not the overlapping peptide P5 of panel A; also called M215 to alanine
Description: as §1, §2

Test [5] addresses T5, P6 (alanine substituted, FIG. 3 panel E).
T5 construct: not the overlapping peptide P6 of panel A; also called S216 to alanine
Description: as §1, §2

The target of test [6] is T6, P8 (alanine substituted, FIG. 3 panel E).
T6 construct: also called P218 to alanine
Description: as §1, §2

Test [7] addresses T7, P10 (alanine substituted, FIG. 3 panel E).
T7 construct: also called I220 to alanine
Description: as §1, §2

The target of test [8] is T8, P15 (alanine substituted, FIG. 3 panel E).
T8 construct: also called Q225 to alanine
Description: as §1, §2

The target in test [9] is T9, P18 (alanine substituted, FIG. 3 panel E).
T9 construct: also called K228 to alanine
Description: as §1, §2

Test [10] addresses T10, P22 (alanine substituted, FIG. 3 panel E).
T10 construct: also called H232 to alanine
Description: as §1, §2

The target of test [11] is T11, P23 (alanine substituted, FIG. 3 panel E).
T11 construct: also called D233 to alanine
Description: as §1, §2

The target of test [12] is T12, P25 (alanine substituted, FIG. 3 panel E).
T12 construct: also called V235 to alanine
Description: as §1, §2

For test [13], the target named is T13, P27 (alanine substituted, FIG. 3 panel E).
T13 construct: also called E237 to alanine
Description: as §1, §2

Test [14] has as its target T14, alanine substituted peptide P12 (F222 to alanine) (human).
T14 construct: The entry already carries the substitution
Description: as §1, §2

Test [15] addresses T15, alanine substituted peptide with P223 replaced by alanine (P13 of FIG. 3 panel E) (human).
T15 construct: The text names only the residue P223
Description: as §1, §2

T2 sequence (peptide, as listed by the source): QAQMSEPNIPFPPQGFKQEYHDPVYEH
T3 sequence (peptide, as listed by the source): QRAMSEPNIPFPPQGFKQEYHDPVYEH
T4 sequence (peptide, as listed by the source): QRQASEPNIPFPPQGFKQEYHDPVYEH
T13 sequence (peptide, as listed by the source): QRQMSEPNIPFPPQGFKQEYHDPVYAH
T10 sequence (peptide, as listed by the source): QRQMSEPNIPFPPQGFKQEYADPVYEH
T15 sequence (peptide, as listed by the source): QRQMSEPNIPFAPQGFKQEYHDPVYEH
T6 sequence (peptide, as listed by the source): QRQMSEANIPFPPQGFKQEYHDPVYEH
T1 sequence (peptide, as listed by the source): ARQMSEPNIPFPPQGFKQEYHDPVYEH
T11 sequence (peptide, as listed by the source): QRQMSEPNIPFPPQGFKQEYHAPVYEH
T12 sequence (peptide, as listed by the source): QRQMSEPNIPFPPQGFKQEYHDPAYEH
T14 sequence (peptide, as listed by the source): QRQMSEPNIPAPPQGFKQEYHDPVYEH
T9 sequence (peptide, as listed by the source): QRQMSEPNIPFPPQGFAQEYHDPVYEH
T7 sequence (peptide, as listed by the source): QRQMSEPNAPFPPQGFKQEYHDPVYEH
T5 sequence (peptide, as listed by the source): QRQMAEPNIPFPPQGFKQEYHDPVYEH
T8 sequence (peptide, as listed by the source): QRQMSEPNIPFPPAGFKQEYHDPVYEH

B1: ETV1 rabbit monoclonal antibody (29E4) (antibody, V domains shown)
VH: QELEESGGDLVKPGASLTLTCTASGFFFSAENHICWVRQAPGKGLEWIGCVYIGSYVGGSGDPYYASWAKGRFTISKTSSTTVTLQMSSLTAADTATYFCARDLGSLWGPGTLVTVSS
VL: DVVMTQTASSVSAAVGGTVTIACQSSQSVYDNNNLAWFQQKPGQPPKRLIYSASTLASGVSSRFKGSGYGTQFTLTISDVQCDDAATYYCVGAFSGYIFVFGGGTEVVVK
notes: constant regions are not; also called 29E4 mAb; ETV1 29E4 mAb
For the molecule B1, the binding result in test [1], in test [2], in test [3], in test [4], in test [5] and in [6] was “binds” in each case. Further, the binding result in test [7], in test [8], in [9], in [10], in test [11] and in test [12] was “binds” throughout. Further, the binding result was “binds” in [13], “no binding (tested: 40 ng/mL)” in test [14] and “binds” in test [15].
